Test results reported in patent US20250228943A1.

Target: TGFβR2-IL18R redirector receptor
Test: cell-based or functional assay

TGFβR2-IL18R redirector receptor, sequence (chain, as listed by the source): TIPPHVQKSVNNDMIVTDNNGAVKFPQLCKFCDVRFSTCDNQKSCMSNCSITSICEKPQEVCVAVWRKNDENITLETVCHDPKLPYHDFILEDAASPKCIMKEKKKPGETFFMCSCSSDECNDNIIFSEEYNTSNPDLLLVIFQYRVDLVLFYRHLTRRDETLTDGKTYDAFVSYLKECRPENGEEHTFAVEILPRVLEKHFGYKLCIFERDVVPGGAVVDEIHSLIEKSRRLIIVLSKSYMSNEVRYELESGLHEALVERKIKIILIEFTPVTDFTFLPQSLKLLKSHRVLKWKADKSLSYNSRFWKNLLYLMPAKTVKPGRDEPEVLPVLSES

percent CD69^+CD25^+ effector cells after five rounds of co-culture with TGFβ (flow cytometry): 61.6%
Substance: TGFβ (ligand)
